Among the data in article PMC7094243 are percent of total protein hexameric and stoichiometry N values, retold here.

The target of experiment [1] is T1, SARS coronavirus non-structural protein 15 (Nsp15), wild-type, His-tagged (SARS coronavirus (SARS-CoV)), P0C6X7.
T1 chain: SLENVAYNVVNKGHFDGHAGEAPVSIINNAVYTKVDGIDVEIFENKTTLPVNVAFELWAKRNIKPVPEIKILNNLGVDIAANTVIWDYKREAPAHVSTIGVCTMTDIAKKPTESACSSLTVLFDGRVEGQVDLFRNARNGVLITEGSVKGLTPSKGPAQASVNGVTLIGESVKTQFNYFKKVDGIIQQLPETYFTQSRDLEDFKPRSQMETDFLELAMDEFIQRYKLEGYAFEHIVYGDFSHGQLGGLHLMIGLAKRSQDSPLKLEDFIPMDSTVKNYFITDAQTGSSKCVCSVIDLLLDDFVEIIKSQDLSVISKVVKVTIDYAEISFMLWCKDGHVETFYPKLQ
In words: SEC. Particulars: remark: other sources report otherwise.

Experiment [2] deals with T1, SARS coronavirus non-structural protein …. In words: AUC. Particulars: remark: other sources report otherwise.

B1: SARS coronavirus non-structural protein 15 (Nsp15), wild-type, His-tagged, P0C6X7 (enzyme)
chain: SLENVAYNVVNKGHFDGHAGEAPVSIINNAVYTKVDGIDVEIFENKTTLPVNVAFELWAKRNIKPVPEIKILNNLGVDIAANTVIWDYKREAPAHVSTIGVCTMTDIAKKPTESACSSLTVLFDGRVEGQVDLFRNARNGVLITEGSVKGLTPSKGPAQASVNGVTLIGESVKTQFNYFKKVDGIIQQLPETYFTQSRDLEDFKPRSQMETDFLELAMDEFIQRYKLEGYAFEHIVYGDFSHGQLGGLHLMIGLAKRSQDSPLKLEDFIPMDSTVKNYFITDAQTGSSKCVCSVIDLLLDDFVEIIKSQDLSVISKVVKVTIDYAEISFMLWCKDGHVETFYPKLQ
As usually defined, the stoichiometry N is the number of molecules, sites or subunits per partner or assembly. On to B1, for which, in experiment [1], the percent of total protein hexameric is 90% and the stoichiometry N came out at 6. The same molecule registered a stoichiometry N in experiment [2] of 6.
